# Laboratory results published in article PMC4877013.
# Experiments:
# [1] = target: major histocompatibility complex class II of H-2^d (A^d) on macrophages of Balb/c mice (mouse (endogenous in Balb/c peritoneal macrophages)); assay: flow cytometry on cells; as a1, but L. donovani infected macrophages (I-MΦ) of Balb/c mice
# [2] = target: major histocompatibility complex class II of H-2^d (A^d) on macrophages of Balb/c mice (mouse (endogenous in Balb/c peritoneal macrophages))
substance,measurement,setting,value
"LACK_(156-173) peptide (amino acid residues 156–173 of LACK protein, Leishmania homolog of receptors for activated C-kinase)",MFI of LACK (156-173)-A^d at '0' h in I-MΦ against N-MΦ,[1],30 % less
same,"rate of decrease of IL-2 production by anti-LACK T cell hybridoma LMR7.5 cocultured with peptide pulsed, fixed I-MΦ (0 to 12 h after the pulse)",[2],17.1
same,"rate of decrease of IL-2 production by anti-LACK T cell hybridoma LMR7.5 cocultured with peptide pulsed, fixed I-MΦ-AL (0 to 12 h after the pulse)",[2],15.8
same,"rate of decrease of IL-2 production by anti-LACK T cell hybridoma LMR7.5 cocultured with peptide pulsed, fixed N-MΦ (0 to 12 h after the pulse)",[2],1.29
